Each block holds one binder with its values, some of them ahead of it.
Tests used:
[1] = target: T1, c-CDCP1 Cut 2 N-terminal fragment (NTF) (human, UniProt Q9H5V8 30-368); experiment: co-transfection of NTF and CTF plasmids (Cut 2), Ni-NTA co-purification
T1 construct: also called NTF (Cut 2)
T1 sequence: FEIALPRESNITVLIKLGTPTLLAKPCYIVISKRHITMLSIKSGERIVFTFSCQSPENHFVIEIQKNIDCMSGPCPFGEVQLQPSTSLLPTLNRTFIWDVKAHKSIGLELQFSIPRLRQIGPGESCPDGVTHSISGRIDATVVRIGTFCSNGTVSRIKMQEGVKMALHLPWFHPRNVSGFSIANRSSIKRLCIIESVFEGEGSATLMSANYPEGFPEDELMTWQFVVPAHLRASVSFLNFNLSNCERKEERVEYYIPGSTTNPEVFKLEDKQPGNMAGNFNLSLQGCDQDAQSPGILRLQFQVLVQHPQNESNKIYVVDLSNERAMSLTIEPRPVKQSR
Text: (§1) In the present example, CDCP1 antigen with endogenous cut sites was generated. Generation of the CDCP1 antigen proceeded by co-transfection of the two fragments on separate plasmids. One set of plasmids encoding the NTF of CDCP1, ending after the PI residue of the 3 different cut sites, was designed; and a second set of plasmids encoding the C-terminal ectodomain of CDCP1 starting at the P1′ residue of the 3 different cut sites (c-CDCP1 Cut 1, Cut 2, Cut 3), was designed (FIG. 3A). Uncleaved CDCP1 ectodomain was generated with a single plasmid encoding the entire ectodomain (fl-CDCP1). Following co-transfection of pairs of NTF and CTF plasmids, an intact cleaved CDCP1 complex was purified by Ni-NTA affinity chromatography for all of the NTF+CTF cut variants (FIG. 3B). In parallel, fl-CDCP1 and c-CDCP1 ectodomains fused to an Fc domain were generated for use in phage selection, using the same co-transfection strategy (FIG. 3H-FIG. 3L). Three pairs of NTF and CTF-Fc plasmids were made that ends or starts at the 3 different cut sites of cleaved CDCP1. An SDS-PAGE gel of fl-CDCP1-Fc and c-CDCP1-Fc (Cut 1, Cut 2, Cut 3) was run (FIG. 3I).

[2] = target: T2, c-CDCP1 Cut 1 N-terminal fragment (NTF) (human, UniProt Q9H5V8 30-365); experiment: co-transfection of NTF and CTF plasmids (Cut 1), Ni-NTA co-purification
T2 construct: also called NTF (Cut 1)
T2 sequence: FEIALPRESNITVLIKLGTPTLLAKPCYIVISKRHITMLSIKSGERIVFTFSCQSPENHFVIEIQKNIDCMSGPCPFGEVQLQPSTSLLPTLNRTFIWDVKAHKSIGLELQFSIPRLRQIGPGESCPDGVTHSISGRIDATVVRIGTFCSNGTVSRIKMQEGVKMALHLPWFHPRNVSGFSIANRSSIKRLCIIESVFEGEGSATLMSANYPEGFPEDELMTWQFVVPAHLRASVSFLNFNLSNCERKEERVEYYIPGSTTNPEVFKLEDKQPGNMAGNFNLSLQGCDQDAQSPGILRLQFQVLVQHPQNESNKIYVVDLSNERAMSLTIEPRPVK
Text: as §1

[3] = target: T3, mouse c-CDCP1 on Fc1245 cells (mouse) (UniProt Q5U462); experiment: flow cytometry on Fc1245 c-CDCP1 cells (FIG. 9B); FIG. 9B
T3 sequence 1: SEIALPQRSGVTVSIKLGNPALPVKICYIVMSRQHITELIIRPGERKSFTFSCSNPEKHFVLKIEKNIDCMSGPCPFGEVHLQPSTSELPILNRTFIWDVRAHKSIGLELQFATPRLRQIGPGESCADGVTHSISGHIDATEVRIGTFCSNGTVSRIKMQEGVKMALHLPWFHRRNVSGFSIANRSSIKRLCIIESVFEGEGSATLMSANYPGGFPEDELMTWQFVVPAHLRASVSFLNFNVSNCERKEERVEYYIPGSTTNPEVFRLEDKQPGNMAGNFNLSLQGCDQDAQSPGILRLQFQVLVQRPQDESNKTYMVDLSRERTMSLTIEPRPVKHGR
T3 sequence 2: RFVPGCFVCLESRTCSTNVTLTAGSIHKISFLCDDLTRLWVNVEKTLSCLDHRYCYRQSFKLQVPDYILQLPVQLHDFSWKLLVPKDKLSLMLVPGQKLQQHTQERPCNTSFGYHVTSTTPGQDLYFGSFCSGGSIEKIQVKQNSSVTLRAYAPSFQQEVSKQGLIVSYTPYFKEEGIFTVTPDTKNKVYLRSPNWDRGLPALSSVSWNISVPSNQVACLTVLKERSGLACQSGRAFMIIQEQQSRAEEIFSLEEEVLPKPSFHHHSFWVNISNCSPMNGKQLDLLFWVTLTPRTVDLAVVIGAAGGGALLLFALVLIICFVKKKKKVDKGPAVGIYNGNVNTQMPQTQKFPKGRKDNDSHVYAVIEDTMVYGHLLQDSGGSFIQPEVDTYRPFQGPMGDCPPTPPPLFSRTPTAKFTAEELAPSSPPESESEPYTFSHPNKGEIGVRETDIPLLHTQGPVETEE

[4] = target: T4, mouse c-CDCP1 (recombinant cleaved mouse CDCP1) (mouse, UniProt Q5U462 30-368; Q5U462 369-666, limits assumed); experiment: BLI (Octet), table of binding affinities to mCDCP1
T4 construct: Mouse antigens made were c-CDCP1-Fc (Cut 1) and (Cut 2); also called mouse cleaved CDCP1; cleaved mCDCP1
T4 sequence 1: T3 sequence 1
T4 sequence 2: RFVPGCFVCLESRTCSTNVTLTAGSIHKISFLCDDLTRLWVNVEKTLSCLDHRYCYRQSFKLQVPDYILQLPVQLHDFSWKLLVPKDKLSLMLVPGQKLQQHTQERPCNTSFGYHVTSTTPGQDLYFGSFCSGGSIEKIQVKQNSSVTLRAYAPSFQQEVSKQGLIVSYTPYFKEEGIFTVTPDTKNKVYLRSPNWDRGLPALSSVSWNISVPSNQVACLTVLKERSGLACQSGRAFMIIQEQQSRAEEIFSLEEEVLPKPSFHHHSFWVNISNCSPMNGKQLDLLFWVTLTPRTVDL

[5] = target: T5, c-CDCP1 Cut 3 N-terminal fragment (NTF) (human, UniProt Q9H5V8 30-369); experiment: co-transfection of NTF and CTF plasmids (Cut 3), Ni-NTA co-purification
T5 construct: also called NTF (Cut 3)
T5 sequence: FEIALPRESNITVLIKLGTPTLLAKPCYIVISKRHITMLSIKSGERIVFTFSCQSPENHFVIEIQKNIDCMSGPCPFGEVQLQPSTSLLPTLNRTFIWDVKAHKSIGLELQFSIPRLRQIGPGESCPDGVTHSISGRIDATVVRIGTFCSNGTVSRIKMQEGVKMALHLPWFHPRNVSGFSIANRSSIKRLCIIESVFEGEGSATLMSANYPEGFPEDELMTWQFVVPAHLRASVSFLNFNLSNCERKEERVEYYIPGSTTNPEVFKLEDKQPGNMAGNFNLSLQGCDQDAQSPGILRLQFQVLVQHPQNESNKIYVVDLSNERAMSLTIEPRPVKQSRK
Text: as §1

[6] = target: T6, c-CDCP1-Fc (Cut 2) (human, UniProt Q9H5V8 30-368; Q9H5V8 369-667); experiment: BLI (Octet RED384) on c-CDCP1-Fc (Cut2); antibody concentration not given
T6 construct: Co-transfection of NTF and CTF-Fc plasmids; not shown: Fc domain
T6 sequence 1: T1 sequence
T6 sequence 2: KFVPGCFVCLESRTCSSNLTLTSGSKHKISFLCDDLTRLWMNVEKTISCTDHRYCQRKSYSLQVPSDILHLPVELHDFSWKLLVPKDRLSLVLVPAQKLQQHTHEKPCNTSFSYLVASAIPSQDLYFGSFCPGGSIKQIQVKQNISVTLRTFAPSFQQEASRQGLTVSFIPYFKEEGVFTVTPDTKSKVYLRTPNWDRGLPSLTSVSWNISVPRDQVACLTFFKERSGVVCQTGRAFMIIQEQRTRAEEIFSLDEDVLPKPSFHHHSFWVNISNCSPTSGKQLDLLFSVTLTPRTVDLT
Method: BLI experiments were performed using an Octet RED384 instrument (ForteBio). Biotinylated proteins were immobilized on a streptavidin (SA) biosensor and His-tagged proteins were immobilized on a Ni-NTA biosensor. Different concentrations of analyte in PBS pH 7.4+0.05% Tween-20+0.2% BSA (PBSTB) were used as analyte. Affinities (KDS) were calculated from a global fit (1:1) of the data using the Octet RED384 software.
Furthermore, variants of CL03 were evaluated for binding to c-CDCP1-Fc (Cut2) by BLI assays using an Octet RED384 instrument (ForteBio) (FIG. 16A) using a procedure as generally described in Example 1. The variants also were evaluated by SEC-based analysis (FIG. 16B) as generally described in Example 1. The variants evaluated by BLI assays and SEC-based analysis included the variants referred to as IgG87, IgG89, IgG94, IgG97, IgG101 (CL03 IgG H1-NtoD H3-MtoA), and IgG102.

binding result [1]: binds
B1: c-CDCP1 Cut 2 C-terminal fragment (CTF) of the ectodomain (receptor)
chain: T6 sequence 2
notes: Tag for Ni-NTA purification not described; also called CTF (Cut 2)

binding result [2]: binds
B2: c-CDCP1 Cut 1 C-terminal fragment (CTF) of the ectodomain (receptor)
chain: QSRKFVPGCFVCLESRTCSSNLTLTSGSKHKISFLCDDLTRLWMNVEKTISCTDHRYCQRKSYSLQVPSDILHLPVELHDFSWKLLVPKDRLSLVLVPAQKLQQHTHEKPCNTSFSYLVASAIPSQDLYFGSFCPGGSIKQIQVKQNISVTLRTFAPSFQQEASRQGLTVSFIPYFKEEGVFTVTPDTKSKVYLRTPNWDRGLPSLTSVSWNISVPRDQVACLTFFKERSGVVCQTGRAFMIIQEQRTRAEEIFSLDEDVLPKPSFHHHSFWVNISNCSPTSGKQLDLLFSVTLTPRTVDLT
notes: Tag for Ni-NTA purification not described; also called CTF (Cut 1)

EC50 [3]: 6.9 nM
Kd [4]: 0.8 nM
B3: IgG 58 (antibody, V domains shown)
VH: EVQLVESGGGLVQPGGSLRLSCAASGFNVYSYSIHWVRQAPGKGLEWVASISSSSGSTSYADSVKGRFTISADTSKNTAYLQMNSLRAEDTAVYYCARYYWDPWQYASYSYLAFDYWGQGTLVTVSS
VL: MTQSPSSLSASVGDRVTITCRASQSVSSAVAWYQQKPGKAPKLLIYSASSLYSGVPSRFSGSRSGTDFTLTISSLQPEDFATYYCQQTYSGPITFGQGTKVEIKR
notes: Mouse cleaved-CDCP1-specific antibody; also called Ab58; IgG 0058

binding result [5]: binds
B4: c-CDCP1 Cut 3 C-terminal fragment (CTF) of the ectodomain (receptor)
chain: FVPGCFVCLESRTCSSNLTLTSGSKHKISFLCDDLTRLWMNVEKTISCTDHRYCQRKSYSLQVPSDILHLPVELHDFSWKLLVPKDRLSLVLVPAQKLQQHTHEKPCNTSFSYLVASAIPSQDLYFGSFCPGGSIKQIQVKQNISVTLRTFAPSFQQEASRQGLTVSFIPYFKEEGVFTVTPDTKSKVYLRTPNWDRGLPSLTSVSWNISVPRDQVACLTFFKERSGVVCQTGRAFMIIQEQRTRAEEIFSLDEDVLPKPSFHHHSFWVNISNCSPTSGKQLDLLFSVTLTPRTVDLT
notes: Tag for Ni-NTA purification not described; also called CTF (Cut 3)

binding result [6]: binds
B5: IgG102 (antibody, V domains shown)
VH: EVQLVESGGGLVQPGGSLRLSCAASGFDFSSYSIHWVRQAPGKGLEWVASSYPYSGSTYYADSVKGRFTISADTSKNTAYLQMNSLRAEDTAVYYCARQSHSYYSHTWWVSYGMDYWGQGTLVTVSS
VL: DIQMTQSPSSLSASVGDRVTITCRASQSVSSAVAWYQQKPGKAPKLLIYSASSLYSGVPSRFSGSRSGTDFTLTISSLQPEDFATYYCQQSGQRPITFGQGTKVEIK

Reference: US20240376224A1 (University of California, published 2024)
